Measured values published in US12138285B2, “Cholesterol reducing compositions and methods of use thereof” (The Broad Institute, Inc., priority 2019, dated 2024).
“Also recorded” adds a separate entry of the source.

Tests used:
Assay type in all cases: biochemical
[1] = tested on: cholesterol; assay: Lysate experiments for cholesterol oxidoreductase activity (E. coli BL21 lysates expressing COR/HSD enzymes), substrate cholesterol; conditions: E. coli lysate expressing the enzyme, 100 μM cholesterol, 100 μM NADP+ and NAD+, 37° C. 12 h, LC-MS
Description: (§1) Candidate cholesterol oxidoreductase genes were amplified from genomic DNA (for E. coprostanoligenes) and cloned into pET28b. DNA was extracted from stool samples (DNeasy PowerSoil Kit, Qiagen) (for CAG:217, CAG:251 and CAG:341) or purchased from Genewiz (Ordered sequences are listed in Table 6). PCR reactions were performed with Phusion High Fidelity polymerase, and PCR products were purified (Zymoclean gel DNA recovery kit, Zymo research). The resulting gene products were assembled into pET28b using Gibson assembly and transformed into Stellar™ Competent Cells. The identities of the constructs were confirmed with DNA sequencing and transformed into E. coli BL21 strains for expression. All constructs were grown in LB with kanamycin (50 μg/mL) with the exception of the strain expressing the homolog from CAG:180 which required growth in TB for protein expression. […]
(§2) 500 mL of a culture of E. coli BL21 expressing one of the cholesterol oxidoreductase homologs were pelleted by centrifugation (20 min at 7,000 g and 4° C.), resuspended in 10 mL of ice-cold phosphate-buffered saline containing one cOmplete Protease Inhibitor cocktail tablet (Roche Diagnostics) and lysed by a cell disruptor (EmulsiFlex-C3, Avestin). […] After incubation at 37° C. for 12 h, the reaction mixtures were frozen until being analyzed using LC-MS. […]

[2] = tested on: cholesterol; assay: In vitro activity assay of purified N-terminal His-tagged ECOP170 (cofactor dependence); conditions: purified enzyme 1.5 μM, HEPES pH 7.5, 100 μM cholesterol, 100 μM NADP+ or NAD+
Description: FIG. 11 In vitro activity assay of purified N-terminal His-tagged ECOP170 expressed in BL21 E. coli. Activity assay with ECOP170 (1.5 μM) in HEPES (pH=7.5, 50 mM, 300 mM NaCl) with 100 μM cholesterol and either 100 μM of NADP^+ (red) or 100 μM of NAD^+ (blue). EICs of 2 (rt 2.60, 385.244→108.988) are shown for both conditions.
Proteins were overexpressed using the procedure described above. Cells from 200 mL of culture were pelleted by centrifugation, resuspended in 10 mL of ice-cold lysis buffer (300 mM NaCl, 10 mM imidazole, 50 mM HEPES, pH 7.5) containing one cOmplete Protease Inhibitor cocktail tablet, and lysed by 4 min of continuous passage through a cell disruptor (EmulsiFlex-C3, Avestin) at 15,000 lbs per square inch. Cell debris was removed by ultracentrifugation (20 min at 20,000×g and 4° C.), and the cell-free extract was applied to 0.5 mL of HisPur Ni-NTA Resin (Thermo Scientific) pre-equilibrated with lysis buffer by gentle rocking at 4° C. for 2 h. Non-absorbed materials and weakly bound proteins were removed by washing the column with 2×25 mL of wash buffer (300 mM NaCl, 20 mM imidazole, 50 mM HEPES, pH 7.5). His6-tagged protein was eluted with 5 mL of elution buffer (300 mM NaCl, 200 mM imidazole, 50 mM HEPES, pH 7.5). […]

[3] = tested on: coprostanol; assay: Lysate experiments for cholesterol oxidoreductase activity, substrate coprostanol; conditions: E. coli lysate expressing the enzyme, 100 μM coprostanol, 100 μM NADP+ and NAD+, 37° C. 12 h, LC-MS
Description: as §1, §2

[4] = tested on: primary bile acids cholic acid and chenodeoxycholic acid; assay: Lysate experiments for cholesterol oxidoreductase activity, substrate primary bile acids; conditions: E. coli lysate expressing the enzyme
Description: FIG. 12A-12B CORs from human-associated gut microbes accept cholesterol and coprostanol but not primary bile acids. Activity assay with E. coli lysates (PBS, pH=7.4) expressing one of the cholesterol oxidoreductase enzymes from human-associated microbes with FIG. 12A. […] EIC for the products of both reactions are shown.
500 mL of a culture of E. coli BL21 expressing one of the cholesterol oxidoreductase homologs were pelleted by centrifugation (20 min at 7,000 g and 4° C.), resuspended in 10 mL of ice-cold phosphate-buffered saline containing one cOmplete Protease Inhibitor cocktail tablet (Roche Diagnostics) and lysed by a cell disruptor (EmulsiFlex-C3, Avestin). Cell debris was removed by ultracentrifugation (30 min at 20,000 g and 4° C.). Protein expression was confirmed by SDS-PAGE analysis using 4-20% Mini-PROTEAN TGX gels (Bio-Rad Laboratories). Gels were stained with Coomassie Blue for visualization. The clarified supernatant was used directly in the cell lysate assay described below. Cholesterol or coprostanol (5 μL of a 10 mM solution of cholesterol or coprostanol in methanol) was added to 500 μL of clarified supernatant with 100 μM of NADP^+ and NAD^+. After incubation at 37° C. for 12 h, the reaction mixtures were frozen until being analyzed using LC-MS.

B1: ECOP170: 3β-hydroxysteroid dehydrogenase / cholesterol oxidoreductase (COR, IsmA) enzyme from E. coprostanoligenes (protein)
chain: MSTCWLQGKTVVVTGASGGMGAGIAATLIKKHGCTVIGVARNEKKMLKFVDELGETYAKQFSYELFDVSSKENWEKFAEELQEKGVKVDVLINNAGILPKFKRFDRYSYEEIERAMNINFYSCVYSVKTMLPMLLQSSTPAIINIDSSAALMTLAGTSMYSASKAALKGFTEALRVEFQGKMFVGLVCPGFTKTDIFSGQGDADMSNGAKVMDMISTDCDKMVKMIMFGIEHKTPMQVHGFDAHAMSVFNRLMPVYGSKLFSSIMRMSNVDIFKEVFSD
With B1 the “oxidation of cholesterol (1) to cholestenone (2)” value [1] was “converts cholesterol (1) to cholestenone (2); also recorded: oxidized cholesterol to 2; also recorded: oxidized cholesterol to cholestenone”, the “cofactor dependence of cholesterol oxidation” value [2] was “showed a strict dependence on NADP^+ and not NAD^+” and the “oxidation of coprostanol (4) to coprostanone (3)” value [3] was “converts coprostanol (4) to coprostanone (3); also recorded: catalyzed the oxidation of coprostanol (4) to coprostanone (3); also recorded: showed activity towards coprostanol”. For the same molecule, the “oxidation of primary bile acids cholic acid and chenodeoxycholic acid to keto bile acids” value [4] was “unable to oxidize the primary bile acids cholic acid and chenodeoxycholic acid; also recorded: did not oxidize the primary bile acids cholic acid and chenodeoxycholic acid”.
